One may read the EC50 as the concentration needed to bring the measured effect to its halfway point. A lower EC50 goes with an effect from little substance. A word on the Kd: it is the free concentration of one partner at which half of the binding sites on the other are occupied at equilibrium, for simple one-to-one binding. The low end stands for higher affinity, the high end for lower affinity. For orientation: koff means the first-order rate constant of dissociation. Lower therefore signals slow dissociation. In general, kon refers to the rate constant with which the complex forms. Higher therefore signals fast association.

Experiment [1] concerns the target T1, Human full length B7-H3 (human, UniProt Q5ZPR3 29-534).
T1 construct: On 3T12 fibroblasts expressing full length human B7-H3 or on NCI-H1650 cells; signal peptide residues 1-28 stated; also called huB7-H3; CD276
T1 sequence: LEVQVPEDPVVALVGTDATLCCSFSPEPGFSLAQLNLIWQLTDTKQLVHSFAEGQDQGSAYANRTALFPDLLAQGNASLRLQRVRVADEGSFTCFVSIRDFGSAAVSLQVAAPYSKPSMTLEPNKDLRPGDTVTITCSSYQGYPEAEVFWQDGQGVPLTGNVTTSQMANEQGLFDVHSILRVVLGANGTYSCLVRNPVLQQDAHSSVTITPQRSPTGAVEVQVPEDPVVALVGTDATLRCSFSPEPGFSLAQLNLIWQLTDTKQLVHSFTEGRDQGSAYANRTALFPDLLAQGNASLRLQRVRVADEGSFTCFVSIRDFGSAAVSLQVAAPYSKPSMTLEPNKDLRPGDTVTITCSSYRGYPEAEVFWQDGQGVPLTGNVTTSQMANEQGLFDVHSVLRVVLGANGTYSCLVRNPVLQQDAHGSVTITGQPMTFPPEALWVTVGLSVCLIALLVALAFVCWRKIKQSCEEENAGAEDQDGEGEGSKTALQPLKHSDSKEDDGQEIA
Briefly: FACS, 3T12 transfectants. Here is the method: (§1) A selection of hits were subcloned using the MoFlo (Beckman, Indianapolis, Ind., US) by depositing a single cell per well into 96 well cell culture plates to ensure clonality of the cell line. Resulting colonies were screened for specificity by FACS using mouse 3T12 fibroblast cell lines expressing the human B7-H3, cynomolgous B7-H3 or mouse B7-H3. Isotype of each monoclonal antibody was determined using the Mouse Monoclonal Isostyping Kit (Roche, No. 11-493-027-001, Indianapolis, Ind., USA).
(Flow cytometry measures light scatter and fluorescence of single cells or particles in a stream.)

Experiment [2] has as its target T2, Cynomolgous B7-H3 on cells (cynomolgus).
T2 construct: whole, on cells; also called cyB7-H3; cyno B7-H3
Description: FACS, 3T12 transfectants. Here is the method: as §1

In experiment [3] the target is T3, Mouse B7-H3 on cells (mouse, UniProt Q8VE98 29-316).
T3 construct: whole, on cells
T3 sequence (looked up): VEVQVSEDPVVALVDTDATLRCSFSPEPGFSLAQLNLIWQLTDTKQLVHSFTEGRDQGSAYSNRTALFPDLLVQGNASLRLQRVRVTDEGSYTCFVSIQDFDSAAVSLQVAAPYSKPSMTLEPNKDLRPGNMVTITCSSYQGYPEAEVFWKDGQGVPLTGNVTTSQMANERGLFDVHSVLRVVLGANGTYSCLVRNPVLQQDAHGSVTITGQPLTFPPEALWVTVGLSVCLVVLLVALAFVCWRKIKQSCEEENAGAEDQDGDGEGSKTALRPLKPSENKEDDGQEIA
Briefly: FACS, 3T12 transfectants. Here is the method: as §1

In experiment [4] the target is T4, Cyno B7-H3-ECD (his tag) (cynomolgus).
T4 construct: SPR analyte; also called soluble ECD of cyno B7-H3
T4 chain: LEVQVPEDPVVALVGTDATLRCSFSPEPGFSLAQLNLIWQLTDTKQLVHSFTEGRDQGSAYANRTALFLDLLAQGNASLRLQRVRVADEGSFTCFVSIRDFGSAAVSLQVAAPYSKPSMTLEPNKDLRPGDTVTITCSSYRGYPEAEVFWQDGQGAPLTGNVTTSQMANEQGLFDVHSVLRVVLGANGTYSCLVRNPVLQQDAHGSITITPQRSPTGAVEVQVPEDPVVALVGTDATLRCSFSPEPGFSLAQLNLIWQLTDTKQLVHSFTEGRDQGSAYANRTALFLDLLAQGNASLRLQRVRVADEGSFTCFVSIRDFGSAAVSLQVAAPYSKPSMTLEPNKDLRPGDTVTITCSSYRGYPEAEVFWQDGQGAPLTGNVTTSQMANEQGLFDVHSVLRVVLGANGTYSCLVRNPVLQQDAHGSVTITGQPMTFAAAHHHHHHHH
Description: SPR, mAb captured, ECD analyte. Background: SPR reads the build-up and loss of mass on a sensor chip optically.

Experiment [5] has as its target T5, Human B7-H3-ECD (His tag) (human, UniProt Q5ZPR3 29-461).
T5 construct: SPR analyte; also called huB7-H3; soluble ECD of human B7-H3
T5 sequence: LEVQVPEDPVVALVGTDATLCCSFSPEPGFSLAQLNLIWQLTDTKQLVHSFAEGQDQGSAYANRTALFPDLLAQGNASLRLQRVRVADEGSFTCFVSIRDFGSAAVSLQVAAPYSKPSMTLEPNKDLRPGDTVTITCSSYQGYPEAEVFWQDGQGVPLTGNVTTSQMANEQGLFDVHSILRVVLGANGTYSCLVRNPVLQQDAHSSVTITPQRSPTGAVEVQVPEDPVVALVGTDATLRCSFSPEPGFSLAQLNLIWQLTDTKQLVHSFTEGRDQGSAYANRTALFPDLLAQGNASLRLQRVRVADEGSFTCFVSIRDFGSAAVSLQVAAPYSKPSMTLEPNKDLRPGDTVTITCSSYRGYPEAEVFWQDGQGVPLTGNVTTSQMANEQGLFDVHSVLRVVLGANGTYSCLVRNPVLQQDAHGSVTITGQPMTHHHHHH
Description: SPR, mAb captured, ECD analyte.

Experiment [6] deals with T1, Human full length B7-H3. Briefly: cell-based or functional assay.

B1: Ab7 (antibody, mouse IgG1, V domains shown)
VH: EVQLVESGENLVKPGGSLKLSCAASGFSFRGYGMSWVRQTPDKRLEWVAAISTGGNYTYYPDSVQGRFTISRDNANNTLYLQMSSLKSEDTAMYYCARRGGNYAGFAYWGQGTLVTVSA
VL: DIQMTQSPASLSVSVGETVTITCRPSENIYSNLAWYQQKQGKSPQLLVYAATNLADGVPSRFSGSGSGTQYSLKINSLQSEDFGTYYCQHFWGTPFTFGSGTKLEIK
notes: mouse IgG1/k
In the case of B1, the values for the 50% effective concentration (EC50) in experiment [1], in experiment [2] and in experiment [3] were 3.22 nM, 2.67 nM and 67.1 nM, respectively. In addition, in experiment [4], the binding result is listed as “binds”.

B2: Ab4 (antibody, mouse IgG2b, V domains shown)
VH: QVQLQQPGAELVKPGASVKLSCKASGYSFTSYWMHWVKQRPGQGLEWIGMIHPNSGSNNYNEKFKSKATLTVDKSSNTAYMQLSSLTSEDSAVYYCARRLGLHFDYWGQGTTLTVSS
VL: DIVMTQSQKFMSTPVGDRVSITCKASQNVGTAVAWYQQKPGQSPKLLIYSASNRYTGVPDRFTGSGSGTDFTLTISNMQSEDLADYFCQQYSSYPYTFGGGTKLEIK
notes: mouse IgG2b/k
Turning to B2, the EC50 was 4.06 nM in experiment [1], 3.1 nM in experiment [2] and 1.75 nM in experiment [3]. Moreover, the Kd in experiment [4] turned out to be 1.8 nM; in experiment [5] it was 1.6 nM. Further, the koff in experiment [4] worked out at 0.00096 s⁻¹; in experiment [5] it was 0.0011 s⁻¹. Besides, the on-rate (kon) came out at 540000 M⁻¹ s⁻¹ in experiment [4] and 690000 M⁻¹ s⁻¹ in experiment [5].

B3: huAb13v1-AAA (antibody, human IgG1, kappa, L234A L235A, V domains shown)
VH: EVQLQESGPGLVKPSETLSLTCAVTGYSITSGYSWHWIRQFPGNGLEWMGYIHSSGSTNYNPSLKSRISISRDTSKNQFFLKLSSVTAADTAVYYCAGYDDYFEYWGQGTTVTVSS
VL: DIQMTQSPSSLSASVGDRVTITCKASQNVGFNVAWYQQKPGKSPKALIYSASYRYSGVPSRFSGSGSGTDFTLTISSLQPEDFAEYFCQQYNWYPFTFGQGTKLEIKR
modifications: synthon AAA on reduced interchain Cys
As for B3, the “EC50 nM H1650 (tumor cell cytotoxicity)” value in experiment [6] is 0.37 nM.

B4: huAb13v1-LB (antibody, human IgG1, kappa, L234A L235A, V domains shown)
VH: B3 VH
VL: B3 VL
modifications: synthon LB on reduced interchain Cys
Regarding B4, in experiment [6], the “EC50 nM H1650 (tumor cell cytotoxicity)” value is > 133 nM.

B5: huAb13v1-WD (antibody, human IgG1, kappa, L234A L235A, V domains shown)
VH: B3 VH
VL: B3 VL
modifications: synthon WD on reduced interchain Cys
As for B5, the “EC50 nM H1650 (tumor cell cytotoxicity)” value in experiment [6] stood at 0.45 nM.

B6: huAb13v1-AAD (antibody, human IgG1, kappa, L234A L235A, V domains shown)
VH: B3 VH
VL: B3 VL
modifications: synthon AAD on reduced interchain Cys
Take B6: in experiment [6], the “EC50 nM H1650 (tumor cell cytotoxicity)” value came out at 0.21 nM.

B7: huAb13v1-ZT (antibody, human IgG1, kappa, L234A L235A, V domains shown)
VH: B3 VH
VL: B3 VL
modifications: synthon ZT on reduced interchain Cys
In the case of B7, the “EC50 nM H1650 (tumor cell cytotoxicity)” value in experiment [6] came out at 0.3 nM.

B8: huAb13v1-ZZ (antibody, human IgG1, kappa, L234A L235A, V domains shown)
VH: B3 VH
VL: B3 VL
modifications: synthon ZZ on reduced interchain Cys
B8: the “EC50 nM H1650 (tumor cell cytotoxicity)” value in experiment [6] stood at 0.42 nM.

B9: Ab9 (antibody, V domains shown)
VH: QVQLQQSGAEVKKPGSSVKVSCKASGGTFSSYAISWVRQAPGQGLEWMGGIIPILGIANYAQKFQGRVTITADESTSTAYMELSSLRSEDTAVYYCARGGSGSYHMDVWGKGTTVTVSS
VL: EIVLTQSPATLSLSPGERATLSCRASQSVSSYLAWYQQKPGQAPRLLIYDASNRATGIPARFSGSGSGTDFTLTISSLEPEDFAVYYCQQRSNWPPRITFGQGTRLEIKR
In experiment [1], B9 had an EC50 of 4.49 nM. In experiment [2], this molecule registered an EC50 of 259 nM. The molecule also registered a concentration for a half-maximal effect (EC50) in experiment [3] of 0.72 nM. Also, in experiment [5], binding was put at a Kd of 17 nM, the dissociation rate constant (koff) was 0.0011 s⁻¹ and the kon was 66000 M⁻¹ s⁻¹.

B10: huAb3v2.6-ZT (antibody, human IgG1, kappa, L234A L235A, V domains shown)
VH: EVQLVQSGAEVKKPGSSVKVSCKASGYTFSSYWMHWVRQAPGQGLEWIGLIHPESGSTNYNEMFKNRATLTVDRSTSTAYMELSSLRSEDTAVYYCAGGGRLYFDYWGQGTTVTVSS
VL: DIVMTQSPLSLPVTPGEPASISCRSSQSLVHSNQDTYLRWYLQKPGQSPQLLIYKVSNRFSGVPDRFSGSGSGTDFTLKISRVEAEDVGVYYCSQSTHVPYTFGGGTKVEIKR
modifications: synthon ZT on reduced interchain Cys
In the case of B10, the “EC50 nM H1650 (tumor cell cytotoxicity)” value in experiment [6] was 1.11 nM.

B11: huAb3v2.6-YG (antibody, human IgG1, kappa, L234A L235A, V domains shown)
VH: B10 VH
VL: B10 VL
modifications: synthon YG on reduced interchain Cys
Turning to B11, in experiment [6], the “EC50 nM H1650 (tumor cell cytotoxicity)” value came out at 0.68 nM.

B12: huAb3v2.6-ZZ (antibody, human IgG1, kappa, L234A L235A, V domains shown)
VH: B10 VH
VL: B10 VL
modifications: synthon ZZ on reduced interchain Cys
For the molecule B12, in experiment [6], the “EC50 nM H1650 (tumor cell cytotoxicity)” value was found to be 1.35 nM.

B13: huAb3v2.6-XW (antibody, human IgG1, kappa, L234A L235A, V domains shown)
VH: B10 VH
VL: B10 VL
modifications: synthon XW on reduced interchain Cys
B13: the “EC50 nM H1650 (tumor cell cytotoxicity)” value in experiment [6] was determined as 2.4 nM.

B14: huAb3v2.6-SE (antibody, human IgG1, kappa, L234A L235A, V domains shown)
VH: B10 VH
VL: B10 VL
modifications: synthon SE on reduced interchain Cys
B14: the “EC50 nM H1650 (tumor cell cytotoxicity)” value in experiment [6] was determined as 1.01 nM.

B15: huAb3v2.6-KZ (antibody, human IgG1, kappa, L234A L235A, V domains shown)
VH: B10 VH
VL: B10 VL
modifications: synthon KZ on reduced interchain Cys
Take B15: the “EC50 nM H1650 (tumor cell cytotoxicity)” value in experiment [6] is 5.52 nM.

B16: huAb3v2.6-SR (antibody, human IgG1, kappa, L234A L235A, V domains shown)
VH: B10 VH
VL: B10 VL
modifications: synthon SR on reduced interchain Cys
Take B16: the “EC50 nM H1650 (tumor cell cytotoxicity)” value in experiment [6] was 0.71 nM.

For the origin of these results see patent US20170355769A1 (AbbVie / Abbott, published 2017).
